Measured values published in US20180273635A1 (Zymeworks, published 2018).
Where a chain is given by its changes, count along the chain named. Names may count otherwise.

B1: variant 12475 (antibody, human IgG1, kappa)
heavy: EVQLVESGGGLVQPGGSLRLSCAASGFRFTDYTMDWVRQAPGKGLEWVADVNPNSGGSIYNQRFKGRFTLSVDRSKNTLYLQMNSLRAEDTAVYYCARNLGPSFYFDYWGQGTLVTVSSASTKGPSVFPLAPSSKSTSGGTAALGCLVKDYFPEPVTVSWNSGALTSGVHTFPAVLQSSGLYSLSSVVTVPSSSLGTQTYICNVNHKPSNTKVDKKVEPKSCDKTHTCPPCPAPELLGGPSVFLFPPKPKDTLMISRTPEVTCVVVDVSHEDPEVKFNWYVDGVEVHNAKTKPREEQYNSTYRVVSVLTVLHQDWLNGKEYKCKVSNKALPAPIEKTISKAKGQPREPQVYVYPPSRDELTKNQVSLTCLVKGFYPSDIAVEWESNGQPENNYKTTPPVLDSDGSFALVSKLTVDKSRWQQGNVFSCSVMHEALHNHYTQKSLSLSPG
light: not shown
chain: not shown
notes: one-armed (OA) pertuzumab variant, HC T28R (Kabat); also called v12475
B2: variant 12543 (antibody, human IgG1, kappa)
heavy: B1 heavy with R28T, F64L
light: not shown
chain: not shown
notes: OA pertuzumab variant, HC F63L (Kabat); also called v12543
B3: variant 12518 (antibody, human IgG1, kappa)
heavy: B1 heavy with R28T, T30R, G57R
light: not shown
chain: not shown
notes: also called v12518
B4: variant 12486 (antibody, human IgG1, kappa)
heavy: B1 heavy with R28T, S55H
light: not shown
chain: not shown
notes: OA pertuzumab variant, HC S54H (Kabat); also called v12486
B5: variant 12535 (antibody, human IgG1, kappa)
heavy: B1 heavy with R28T
light: DIQMTQSPSSLSASVGDRVTITCKASQDVSIGVAWYQQKPGKAPKLLIYSASYRYTGVPSRFSGSGSGTDFTLTISSLQPEDFATYYCQQNYIYPYTFGQGTKVEIKRTVAAPSVFIFPPSDEQLKSGTASVVCLLNNFYPREAKVQWKVDNALQSGNSQESVTEQDSKDSTYSLSSTLTLSKADYEKHKVYACEVTHQGLSSPVTKSFNRGEC
chain: not shown
notes: OA pertuzumab variant, LC Y91N (Kabat); also called v12535
B6: variant 12515 (antibody, human IgG1, kappa)
heavy: B1 heavy with R28T
light: B5 light with T56W, N91Y
chain: not shown
notes: OA pertuzumab variant, LC T56W (Kabat); also called v12515
B7: variant 12545 (antibody, human IgG1, kappa)
heavy: B1 heavy with R28T, Q62R
light: not shown
chain: not shown
notes: OA pertuzumab variant, HC Q61R, LC Y94K (Kabat); also called v12545
B8: variant 12488 (antibody, human IgG1, kappa)
heavy: B1 heavy with R28T, G57R
light: not shown
chain: not shown
notes: OA pertuzumab variant, HC G56R (Kabat); also called v12488
B9: variant 12539 (antibody, human IgG1, kappa)
heavy: B1 heavy with R28T
light: B5 light with N91T
chain: not shown
notes: OA pertuzumab variant, LC Y91T (Kabat); also called v12539
B10: variant 12496 (antibody, human IgG1, kappa)
heavy: B1 heavy with R28T, I59Y
light: not shown
chain: not shown
notes: OA pertuzumab variant, HC I58Y (Kabat); also called v12496
B11: variant 12476 (antibody, human IgG1, kappa)
heavy: B1 heavy with R28K
light: not shown
chain: not shown
notes: OA pertuzumab variant, HC T28K (Kabat); also called v12476
B12: Variant 14052 (antibody, human IgG1, kappa)
heavy: B1 heavy with R28T, S103W
light: not shown
chain: not shown
notes: OA (one-armed) format; clones 7852, 8781, 4372; also called v14052
B13: variant 12541 (antibody, human IgG1, kappa)
heavy: B1 heavy with R28T
light: not shown
chain: not shown
notes: OA pertuzumab variant, LC Y96L (Kabat); also called v12541
B14: variant 12487 (antibody, human IgG1, kappa)
heavy: B1 heavy with R28T, G57K
light: not shown
chain: not shown
notes: OA pertuzumab variant, HC G56K (Kabat); also called v12487
B15: variant 14064 (antibody, human IgG1, kappa)
heavy: B1 heavy with R28T, K76A
light: not shown
chain: not shown
notes: OA pertuzumab variant, HC K75A (Kabat); also called v14064
B16: variant 14066 (antibody, human IgG1, kappa)
heavy: B1 heavy with R28T, K76V
light: not shown
chain: not shown
notes: OA pertuzumab variant, HC K75V (Kabat); also called v14066
B17: variant 12526 (antibody, human IgG1, kappa)
heavy: B1 heavy with R28T, G57M, I59Y
light: not shown
chain: not shown
notes: also called v12526
B18: variant 12500 (antibody, human IgG1, kappa)
heavy: B1 heavy with R28T, S75Y
light: not shown
chain: not shown
notes: OA pertuzumab variant, HC S74Y (Kabat); also called v12500
B19: variant 12477 (antibody, human IgG1, kappa)
heavy: B1 heavy with R28T, T30R
light: not shown
chain: not shown
notes: OA pertuzumab variant, HC T30R (Kabat); also called v12477
B20: variant 12481 (antibody, human IgG1, kappa)
heavy: B1 heavy with R28T, T30K
light: not shown
chain: not shown
notes: OA pertuzumab variant, HC T30K (Kabat); also called v12481
B21: variant 12546 (antibody, human IgG1, kappa)
heavy: B1 heavy with R28T, Q62R
light: B5 light with D1N, N91Y
chain: not shown
notes: OA pertuzumab variant, HC Q61R, LC D1N (Kabat); also called v12546
B22: variant 12501 (antibody, human IgG1, kappa)
heavy: B1 heavy with R28T, S75E
light: not shown
chain: not shown
notes: OA pertuzumab variant, HC S74E (Kabat); also called v12501
B23: variant 12498 (antibody, human IgG1, kappa)
heavy: B1 heavy with R28T, Q62K
light: not shown
chain: not shown
notes: OA pertuzumab variant, HC Q61K (Kabat); also called v12498
B24: variant 12492 (antibody, human IgG1, kappa)
heavy: B1 heavy with R28T, G57W
light: not shown
chain: not shown
notes: OA pertuzumab variant, HC G56W (Kabat); also called v12492
B25: variant 12542 (antibody, human IgG1, kappa)
heavy: B1 heavy with R28T, F64G
light: not shown
chain: not shown
notes: OA pertuzumab variant, HC F63G (Kabat); also called v12542
B26: variant 12537 (antibody, human IgG1, kappa)
heavy: B1 heavy with R28T
light: not shown
chain: not shown
notes: OA pertuzumab variant, LC Y96M (Kabat); also called v12537
B27: variant 12499 (antibody, human IgG1, kappa)
heavy: B1 heavy with R28T, S75D
light: not shown
chain: not shown
notes: OA pertuzumab variant, HC S74D (Kabat); also called v12499
B28: variant 12495 (antibody, human IgG1, kappa)
heavy: B1 heavy with R28T, I59F
light: not shown
chain: not shown
notes: OA pertuzumab variant, HC I58F (Kabat); also called v12495
B29: variant 14065 (antibody, human IgG1, kappa)
heavy: B1 heavy with R28T, K76I
light: not shown
chain: not shown
notes: OA pertuzumab variant, HC K75I (Kabat); also called v14065

Tests used:
Recombinant human HER2 [1] = biological target: T1, Recombinant human HER2 (human, UniProt P04626 23-652); assay: SPR, variant captured on anti-human Fc, HER2 flowed, 25 C, pre-SEC;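 further: HER2 extracellular domain binding on Biacore T200, CM5 chip with amine-coupled anti-human Fc, duplicate antigen dilutions, global 1:1 Langmuir fit, measured after protein A purification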
T1 construct: extracellular domain; analyte of the SPR assays; also called HER2 ECD; ECD2 of HER2
Method: The affinity towards HER2 ECD of the samples was measured by SPR on a Biacore T200 as follows. Between 2000 and 4000 RU of anti-human Fc injected at concentration between 5 and 10 μg/ml was immobilized on a CM5 chip using standard amine coupling. Antigen-binding constructs were captured on the anti-human Fc (injected at concentration at 0.51 microg/mL in PBST, 1 min at 10 microl/min) at response levels ranging from 120-270 RU. […] HER2 dilutions were analyzed in duplicates. Sensograms were fit globally to a 1: 1 Langmuir binding model, using the software provided with the Biacore T200. All experiments were conducted at 25° C.
The affinity of antigen-binding constructs in OA format was determined by SPR following protein A purification. […] Antigen-binding constructs in FSA format were purified by protein A affinity and SEC prior to assessment of affinity by SPR.

Recombinant human HER2 [2] = biological target: T1, Recombinant human HER2; assay: SPR, pre-SEC; ratio to WT v10013;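 further: SPR on Biacore T200 at 25 °C, constructs captured via anti-human Fc on CM5 chip, HER2 ECD as analyte, 1:1 Langmuir global fit, after protein A purification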
Recombinant human HER2 [3] = biological target: T2, Recombinant human HER2 (human, UniProt P04626 23-652); assay: SPR, Biacore T200, 25 C; variant captured on anti-human Fc, HER2 flowed;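 further: HER2 extracellular domain analyte run as duplicate dilutions over amine-coupled anti-Fc on a CM5 chip, rates from global sensorgram fitting with a 1:1 Langmuir model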
T2 construct: extracellular domain; Analyte of the SPR assays; also called HER2 ECD; ECD2 of HER2

Binder | Kd (Recombinant human HER2 [1]) [nM] | Ka, mut/Ka, WT (Recombinant human HER2 [2]) | Kd (Recombinant human HER2 [3]) [nM] | koff (Recombinant human HER2 [3]) [s⁻¹] | kon (Recombinant human HER2 [3]) [M⁻¹ s⁻¹]
B1 | 45 | 0.4 | – | – | –
B2 | 20 | 1 | – | – | –
B3 | 21 | 0.9 | – | – | –
B4 | 92 | 0.2 | – | – | –
B5 | 23 | 0.8 | – | – | –
B6 | 26 | 0.8 | – | – | –
B7 | 81 | 0.2 | – | – | –
B8 | 30 | 0.6 | – | – | –
B9 | 75 | 0.3 | – | – | –
B10 | 66 | 0.3 | – | – | –
B11 | 61 | 0.3 | – | – | –
B12 | – | – | 55 | 0.0053 | 97000
B13 | 63 | 0.3 | – | – | –
B14 | 44 | 0.4 | – | – | –
B15 | 9.7 | 1.7 | – | – | –
B16 | 10 | 1.6 | – | – | –
B17 | 130 | 0.2 | – | – | –
B18 | 20 | 1 | – | – | –
B19 | 23 | 0.9 | – | – | –
B20 | 310 | 0.1 | – | – | –
B21 | 15 | 1.3 | – | – | –
B22 | 85 | 0.2 | – | – | –
B23 | 19 | 1 | – | – | –
B24 | 17 | 1.1 | – | – | –
B25 | 40 | 0.5 | – | – | –
B26 | 57 | 0.3 | – | – | –
B27 | 69 | 0.3 | – | – | –
B28 | 50 | 0.4 | – | – | –
B29 | 11 | 1.5 | – | – | –
